Reference: article PMC4279232

Target: recombinant GST-FAM21 356–600
Assay: SPR

Kd: 0.3 to 0.6 nM
Substance: MBP-CCDC93 (448–631) (from UniProt Q567U6 448-631) (domain or fragment)
